Measured values as given in article PMC3954883.

Target: chimeric avidin mutant A/A2-B I109K
Assay: SDS-PAGE stability assay; 55 µM acetylated protein in pH 7 buffer, with or without biotin-5-fluorescein, 20 min at 20-100°C, sample buffer without SDS, 15% gel; control boiled with 2% SDS and 0.5% β-mercaptoethanol

stoichiometry N: 4
Substance: chimeric avidin mutant A/A2-B I109K
